Consider 2 substances from patent US20240189392A1.

Common to all, as to experiment: cell-based or functional assay
In test [1] the target is human RXFP2 (human) (UniProt Q8WXD0).
Test [2] deals with human RXFP4 (human) (UniProt Q8TDU9).
The target of test [3] is human RXFP3 (human) (UniProt Q9NSD7).
Sequence of human RXFP3 (human) (Q9NSD7 whole entry): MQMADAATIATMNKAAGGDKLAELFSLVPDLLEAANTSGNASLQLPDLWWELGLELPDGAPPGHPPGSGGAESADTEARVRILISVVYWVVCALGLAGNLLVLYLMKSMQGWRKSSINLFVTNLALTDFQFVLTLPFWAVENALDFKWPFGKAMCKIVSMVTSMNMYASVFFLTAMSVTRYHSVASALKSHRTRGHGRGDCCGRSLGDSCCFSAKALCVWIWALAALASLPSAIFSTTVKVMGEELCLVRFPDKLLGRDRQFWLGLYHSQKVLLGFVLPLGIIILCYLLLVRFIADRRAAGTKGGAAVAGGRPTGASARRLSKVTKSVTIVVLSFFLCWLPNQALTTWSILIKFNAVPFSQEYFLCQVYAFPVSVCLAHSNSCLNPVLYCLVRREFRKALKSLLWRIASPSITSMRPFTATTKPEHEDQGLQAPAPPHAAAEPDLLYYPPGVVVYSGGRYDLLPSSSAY

Sequence of human RXFP4 (human) (Q8TDU9 whole entry): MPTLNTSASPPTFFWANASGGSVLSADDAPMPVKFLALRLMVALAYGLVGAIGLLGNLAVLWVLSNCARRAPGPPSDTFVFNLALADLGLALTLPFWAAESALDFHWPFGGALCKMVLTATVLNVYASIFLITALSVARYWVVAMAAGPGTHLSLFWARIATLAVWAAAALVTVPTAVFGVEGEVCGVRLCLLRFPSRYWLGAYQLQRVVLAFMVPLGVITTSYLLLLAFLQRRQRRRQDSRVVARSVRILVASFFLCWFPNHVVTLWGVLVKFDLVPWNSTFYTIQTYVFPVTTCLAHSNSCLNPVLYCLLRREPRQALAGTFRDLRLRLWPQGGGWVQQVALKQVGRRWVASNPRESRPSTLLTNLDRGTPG
Sequence of human RXFP2 (human) (Q8WXD0 whole entry): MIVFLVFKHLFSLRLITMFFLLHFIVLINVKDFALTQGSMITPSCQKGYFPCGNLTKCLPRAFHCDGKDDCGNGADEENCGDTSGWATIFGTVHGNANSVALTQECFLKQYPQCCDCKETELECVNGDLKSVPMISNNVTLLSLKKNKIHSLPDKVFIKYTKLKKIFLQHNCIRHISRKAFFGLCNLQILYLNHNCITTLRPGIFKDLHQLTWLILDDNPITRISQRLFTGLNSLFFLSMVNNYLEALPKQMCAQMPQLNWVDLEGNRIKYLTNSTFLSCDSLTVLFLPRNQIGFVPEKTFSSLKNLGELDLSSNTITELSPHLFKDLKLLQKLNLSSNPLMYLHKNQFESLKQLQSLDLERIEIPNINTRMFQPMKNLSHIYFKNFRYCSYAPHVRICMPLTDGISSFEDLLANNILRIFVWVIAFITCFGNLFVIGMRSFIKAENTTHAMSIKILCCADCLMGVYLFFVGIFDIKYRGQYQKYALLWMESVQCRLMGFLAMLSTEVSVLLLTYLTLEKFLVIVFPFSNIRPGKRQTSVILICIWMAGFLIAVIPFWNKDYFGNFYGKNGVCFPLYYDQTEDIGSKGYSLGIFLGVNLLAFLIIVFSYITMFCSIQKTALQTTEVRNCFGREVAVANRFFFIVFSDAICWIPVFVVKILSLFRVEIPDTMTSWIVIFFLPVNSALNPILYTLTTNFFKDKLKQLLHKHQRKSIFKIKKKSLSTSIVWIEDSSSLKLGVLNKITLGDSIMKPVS

For “insulin like 3 protein (INSL3) (from UniProt P51460 21-131) (ligand)”, the cAMP Assay EC50 (nM), human RXFP2/CHO-K1 cells in test [1] worked out at 0.46 nM.

In test [2], “recombinant human relaxin 3 (H3-RLX) (from UniProt Q8WXF3 26-142) (ligand)” returned a cAMP Assay EC50 (nM), inhibition of forskolin-induced cAMP, human RXFP4/CHO-K1 cells of 2.8 nM and a maximal inhibition of forskolin-induced cAMP, human RXFP4/CHO-K1 cells of 40%. The substance also displayed a cAMP Assay EC50 (nM), inhibition of forskolin-induced cAMP, human RXFP3/CHO-K1 cells in test [3] of 0.6 nM.
